Measured values as given in PMC8533965.
Like-named read-outs stand apart in the source and are kept apart here.

Experiments:
[1] = target: zebrafish Vasa, full length (amino acids 1–715), fused to the Venus N-terminal half (zfVasa-VN) (zebrafish); assay: split reporter (BiFC, NanoBiT); BiFC with split Venus in living zebrafish embryos: Buc constructs with VC and zfVasa constructs with VN at their C-termini, mRNAs (200 ng/μL) co-injected at the one-cell stage, fluorescence imaged at 3 hpf by confocal microscopy; read-out percent of fluorescent embryos, three independent …
[2] = target: zfVasa-BBM (amino acids 600–625) fused to the Venus N-terminal half (zebrafish); assay: as above
[3] = target: zfVasa-HC (helicase core, amino acids 278–715) fused to the Venus N-terminal half (zebrafish); assay: as above
[4] = target: zebrafish Vasa, full length (amino acids 1–715), fused to the Venus N-terminal half (zfVasa-VN) (zebrafish); assay: as above; remark: listed apart in the source
[5] = target: zfVasa RecA-CTD (amino acids 496–623) fused to the Venus N-terminal half (zebrafish); assay: as above
[6] = target: zfVasa eRecA-CTD (extended sequence at the C-terminus of RecA-CTD, amino acids 624–715) fused to the Venus N-terminal half (zebrafish); assay: as above
[7] = target: zfVasa S608A (full length) fused to the Venus N-terminal half (zebrafish); assay: as above
[8] = target: zebrafish Vasa, full length (amino acids 1–715), fused to the Venus N-terminal half (zfVasa-VN) (zebrafish); assay: as above; remark: listed apart in the source
[9] = target: zfVasa S607A (full length) fused to the Venus N-terminal half (zebrafish); assay: as above
[10] = target: zfVasa (amino acids 227–670), recombinant, GST tag removed (zebrafish)

Row | percent of fluorescent embryos (BiFC) [1] | percent of fluorescent embryos (BiFC) [8] | Binder | further results
1 | 77% |  | Buc-CTD (amino acids 363–639) fused to the Venus C-terminal half (domain or fragment) YPQVTQERQSVLSPSIDELSSRDEMFSTDVEDLEVVPGHVYVGGGRLAEASDMPVRSRKELPSVDKTCSVCQKTCACCGSTLQDEVGMCKMAEHSHPERDEMSDQDCDYDLEAEVRSNCESPRVSKRKCCSRHALPSCGHHCAKHRHRKLLCEGQESCDLREQARVHPKGECCEEYGALAKADKRIQKGALCRPCIEQQWREGVVSDQENWASCGAKPRSWRQVTGPQDQGRTPLRRSTCKSIHQQRPRSEYNDYDETEFTYCQRGRGSMKKRGSRY | 
2 | 82% | 79% | Bucky ball, full length (amino acids 1–639), fused to the Venus C-terminal half (Buc-VC) (natural protein) MEGINNNSQPMGVGQPHHPVNHTRPFFYVQPPSQPYFMYQWPMNPYGHYGFPGPALHFGRPYMAPYQFMQYPGYVIPHAPMQPIDYRRINPHYPSVASYDLRVRHHFQNAGMHRETACSEVQTDPSDSVNKLIDKIESLKACELGSDKGPNNVVSSTPDVVQGEKLTRLNEDSNLEVATKECKEDPVTRPTTYSDSAYDAESSQGRLDECVFSDVLPLDSSSVHEEEEEEEKDVNEEDEPQTVADEICSQNEMSASTTSNVFCSGVQSIADPTECHDLEKLGDEQKQDIPSADAAAVIEPLISLSEDFDLPYQILRLPCNKTTTGLSLEREIDPLVYFDSPSTLLPPQNYLSSIGSAYSYSYYPQVTQERQSVLSPSIDELSSRDEMFSTDVEDLEVVPGHVYVGGGRLAEASDMPVRSRKELPSVDKTCSVCQKTCACCGSTLQDEVGMCKMAEHSHPERDEMSDQDCDYDLEAEVRSNCESPRVSKRKCCSRHALPSCGHHCAKHRHRKLLCEGQESCDLREQARVHPKGECCEEYGALAKADKRIQKGALCRPCIEQQWREGVVSDQENWASCGAKPRSWRQVTGPQDQGRTPLRRSTCKSIHQQRPRSEYNDYDETEFTYCQRGRGSMKKRGSRY | percent of fluorescent embryos (BiFC) [2]: 69%; percent of fluorescent embryos (BiFC) [3]: 70%; percent of fluorescent embryos (BiFC) [4]: 77%; percent of fluorescent embryos (BiFC) [5]: 64%; percent of fluorescent embryos (BiFC) [6]: 14%; percent of fluorescent embryos (BiFC) [7]: 27%; percent of fluorescent embryos (BiFC) [9]: 38%
3 |  |  | YPQVTQERQSVLSPSIDELSSRDEMFSTDVEDLEVVPG [Buc-VBM (amino acids 363–400), recombinant, GST tag removed] | ATPase activity of 5-µM zfVasa with 2.5-mM ATP (NADH-coupled assay, absorption at 340 nm, 25 °C) on addition of 100-µM Buc-VBM, without RNA [10]: 2 fold
4 |  | 48% | YPQVTQERQSVLSPSIDELSSRDLMFSTDVEDLEVVPG (domain or fragment) [Buc-VBM (amino acids 363–400) E386L fused to the Venus C-terminal half] | 
5 | 72% | 70% | YPQVTQERQSVLSPSIDELSSRDEMFSTDVEDLEVVPG (domain or fragment) [Buc amino acids 363–400 fused to the Venus C-terminal half] | 
6 |  | 43% | YPQVTQERQSVLSPSIDELSSRDEMFATDVEDLEVVPG (domain or fragment) [Buc-VBM (amino acids 363–400) S389A fused to the Venus C-terminal half] | 
7 |  | 63% | YPQVTQERQSVLSPSIDELSSGDEMFSTDVEDLEVVPG (domain or fragment) [Buc-VBM (amino acids 363–400) R384G (non-conserved control) fused to the Venus C-terminal half] | 
8 | 38% | 36% | YPQVTQERQSVLSPSILELSSRDEMFSTDVEDLEVVPG (domain or fragment) [Buc-VBM (amino acids 363–400) D379L fused to the Venus C-terminal half] | 
9 | 66% |  | SVLSPSIDELSSRDEMFSTDVED (domain or fragment) [Buc amino acids 372–394 (highly conserved sequence, Buc-VBM) fused to the Venus C-terminal half] | 
